Test results from the domain aggregation screens of Martell et al. (2025).

Assay: soluble fraction after stress (log2 fold change); higher = more stays soluble; pooled small domains, quantitative proteomics
Conditions: stress: 75 degC
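Also: 20 min heating vs room temperature control held 20 min.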

| Sequence | soluble fraction (log2) |
| --- | --- |
| HMEARNDWAQQSRADAEFGGEKLDENLAVAKKAVEALASPELKTLLEQSGLGNHPEIIRLFYRAGRSLS | 0.0741 |
| HMEATILTATPEAAGQRLDAFLAETLPELTRSAAQRLIAEGQVAVDGKIPTKSLKLAGGETVSVRLPEPE | 0.734 |
| HMEAVIGGIYRHYKGNNYKLLAVATHSETLEKMAVYQALYGEMGIWVRPLAMFMETIEKDGQSLKRFE | -2.67 |
| HMEDAWMKKELWDAIATLPKKQRLVMTMRLTNNHSYKEIAAILGISENSAKVSYHHAVERLKEKFK | -2.23 |
| HMEDDPIYEQVMIFLLDKQITSAPELERRFKITHQRAIELLAQMEKTGIVSTMGHAGKRDVLT | -1.85 |
| HMEDEFNQIASQKNVPSFLGKGKKEVINIAKKNKIKINLSGNGYVKRQIPAPGEVISHLDEVTIFLEPG | -0.0115 |
| HMEDEVYFVPSPASRFNPWIAALASRRVPYRVEYDGAERRIAVPAGYAEKAGEELAAYERINHAWPR | -0.371 |
| HMEDFDLSDTERKIIAQIGHGYSNKEIAQKLGFSEGTIRNYLSVILDKLDLRDRTQLAIWYLSR | -0.592 |
| HMEDIAAIAQRIQGLRDIVGISVEEMAKALDISEQEYREYEKGETDFSFSFLYTVANVLGINITDLI | -1.29 |
| HMEDIEEVIVEIDTVLRTHFDRGRTEVLFAEIETAGGRPFMTYLALLFMAHRGSVRLQQDDLFGDLWVKDP | 0.198 |
| HMEDISLYKILRAHSIDNLKLSQWIIDSLKTKFSTIGELQDAKIDDIRMYRIQDVRIEKIKNAVTEYMA | -1.08 |
| HMEDISQHAVKKLVQEMVMAEDPRDPLSDQQIAENLSRLGLKVARRTVAKYRAMLGIQPSNRRRK | -1.21 |
| HMEDIVDLVVEPEAAGRRLDAWLASRIERLSRSRIKALIESGHVAIGGATIVEAKKPVNSGDVVQLSVPEG | -0.263 |
| HMEDKQRRMGELVALLNRAAYAYYTKDEPIMADVQYDRLYDELLSLEKETGVQMADSPTHRV | 0.0301 |
| HMEDLMEERKEHLLSVMKDPAYVPMKQKELAMLLNVPKGLREELNQVLDALVAEGSVVMSKRGKYTIPQ | -0.0948 |
| HMEDNLVTYPNPTSDYIYVSKKVDLTVVNMLGDILIQKQNINVLDVTELTPGMYTIVIRYNNVTTNKRIIK | -0.017 |
| HMEDPFATLGVHREASLDEIKRAYRRLAMFWHPDRNPEAVAGTEFKRVHAAYELLLDPQRLAEWQQAQAT | -0.19 |
| HMEDPLAAQWKQGRKLFHDDYGYGIISKAFTAGDELVIMVQFENGGEKRFLPKYQAHNLLLVEQ | -1.33 |
| HMEDQVITQFNMRLIRAVMPQGAPMIVVYEDPKDYPGLFVARLFDGRKSTHLIALADTLEDI | -0.31 |
| HMEDVDTAALEKVIATAKGLNKNDYTATTWTTMQAALTNAEKALEAKKSQTSVDEAAKTLQAAIDGLKKAS | 0.336 |
| HMEDVPYMIKLPSHHYLTKMVDGSTGWSLVQNSNTVVGSSKEELLKQYPEYEDFIVQEPLNV | -0.0186 |
| HMEDVSTLAVKQRIDDLVKQENPAKPLSDSDIVARLKTDGIYIARRTVAKYRMELNIPSSSARKRAQQFS | -2.31 |
| HMEDWTPERFVGAFVSGGPALRDEILLAATKDLSHAQATRLLKLAEARGLVHRSQPGPSERVRFVVARK | -0.518 |
| HMEDYTPLQELGLKARYIELLEKGGIFSVEDLVQKSVDDLKDIDGIGEKTAKEIWEIVDSMVDF | 0.0226 |
| HMEDYYKEDYYTEVLKIPKEYIKGFQYYLIEDAEFVNALNAKNKTMTSFLAKKLASDYIEIIHQEQ | -2.2 |
| HMEEDDGVDFHERLTELNDEQVYYLINTEPAKVIALALDQLGQKRKINIMNRFNPDMKHSIIMELGKL | -0.543 |

| Sequence | soluble fraction (log2) |
| --- | --- |
| HMEEDGAPLESREVLLDQAISQGKGTQWTIATETKLEDHIVSGAYSTDGKVTLAVFSPLGDGKYEFSSSVN | 0.181 |
| HMEEDPIIIAQRFLNIFRQLHIFSEEKKESFNKMLLEQPAEIRGALRSLPGGGLLQDYIDDLESKA | -0.698 |
| HMEEEEITIHIIGEVKYPGIVILKTGQRIIDAIDAAGGETEEADLNKINLAQLLSDGDKIYVPSINDN | 0.158 |
| HMEEFAGYINGQPYYGPTHQHRGVKMVGAEHTQRPHPLVWDSVAKSLDNYDNRFQWVNGNLLQVV | -0.0201 |
| HMEEFGRRLKERMIDKNMTEAELAQKTELWSSILTSYLKGERFPGYYTLLRIAEALDVSIDFLLGLRDEPE | -2.72 |
| HMEEILLSVKADGTYWVDQKEVTLDEVGALLDKEPDRLLNIFMDEKVPVRHFINVVDIAKVKREGRFII | -0.27 |
| HMEEIQLILAKNLKSIREKEKLSLEKVSQLTGVSKTMIGQIERGDSSPTLTTIWKIANGLKVSFTSLINNP | -3.06 |
| HMEEKKYEVGDVVSFNYLYKNSFAEGKVSSLIHSGTITRIIDGRPAPYLINRGTGWLSNDLILT | -1.21 |
| HMEEKNNIIVSYIEDKISELEKASMYVPNENKEKLIMAFKNRNEDIDVIKTRIDTIFNNSVAAYKENME | 0.557 |
| HMEEKTMNLPPSAKLVYKILSYEGNLTQKEIINMTYLPERTVRHALELLLGKRLITRQAYLNDARQSVYG | -1.72 |
| HMEEKVEVPNLSGKTYQQAKALLESYGLVAAKGGEEESEEPVGKVSRWSSAGKSVKKGTTITVWISGGI | -0.298 |
| HMEEKWKENYEKIKLFISINNRYPSVYSEDKEEGLIGSFMSNQKRRKNKLSKEKMALFEALPNWIWE | -2.53 |
| HMEELNFYPNPAYKYINLDYVGLKEIYTVLGKKLLETYDTRINISNLNSGIYLIKFKNQALRFVK | 0.0302 |
| HMEELVGFEEKVRSILTSPLSAKEIKEKTHIEIDTRKLSKMLSELSFIKTEKKNGKKIFRLVS | -0.243 |
| HMEEMADILKTRIDTLDLSTRTLNALTGANIRTVGGIARKKKEDLLELAGMGEKGIQEIKKVLGGFGITL | -0.157 |
| HMEEPEYELLRQAVLALPEKYRLPIHLYYYEEYSVREIAEILQRKESAVQTQLQRGREKIRRSLTEKGVS | -0.874 |
| HMEEPLIISIDSNGAVYLEVDSFKDQSIEMSSLREIIEKIILANPDIQVVVRGDSEVKYEKVMDLMSILQS | -1.58 |
| HMEEQGLPLVIISDGKVLAQNLTLRSLDRAWLQDQLTQHGHSKPEQVFLLTVDERGAVYYVPKE | -0.556 |
| HMEEQQIQLIQMKMEKDHKYVGKKISELRIKNMLIVLIKRGDEDIIPRAEVKIKEGDILVLSAQSYEG | -0.424 |
| HMEETAFEKLSPLQKLRALGKPLTMINMRDGSQIAGSVQRSDDKFLYLDTGDGIAKLPVEEILRRTPM | 0.149 |
| HMEETIVFGQQKAINALSSDAGLSSNELDSYLKKRYKRPLYQLSKSEGAELIQGFQDGSLSKASIMDYVS | 0.19 |
| HMEEVIEVEGKITAVLPSTMFRAELENGHQVLAHISGKLRKHFIKITVGDIVKMEMSTQDLQKARIV | -0.411 |
| HMEEVRFPLKKEILLWALKEAQVDEDEVFRKFTNLEKWINGEKHPTFKQIESLANYLKIPFGYMFLEKPPI | -1.02 |
| HMEEVVIPDLAGLTEEEATKVLMAKELKLKVSGSQHSDIEKGLIISQDPPAGEKGAKNSQVAVVTSSG | 0.0827 |
| HMEFDFGAILSGNGGSELYSGYSAEQKAALVEAAKADGMDVEFGADGSTTFKDKDGSEVVQKADGTWTV | 0.235 |
| HMEFDVELTSFEEAKKLKVIKEVKDVTGLSLGEAKDLVMGAPKAIKTGVSKEEAEAIKTQIEAAGAVVTI | 0.101 |

| Sequence | soluble fraction (log2) |
| --- | --- |
| HMEFDYIVKVPDVRNKKIEDAGKILIDLGLKYTTESDYITQDLKVIDQFPLPGTEVSKGSIIDIYLEEDFK | -0.473 |
| HMEFEKYKYHYIFDDVLGLRIVWDRGKEHFSYFVNEELAEKSRKSDKDALEVMFYLEHKRWPEEGELENY | -1.67 |
| HMEFEYTVVVPETRGKTIGEAGRILLDLELKYTSESMNIREDSKVIDQFPSPGTEVSKGSIIDLYLDE | -0.137 |
| HMEFQISLAAARVNANMTQEDTARAMKVSKTTIVNWEKGKVIPGIPEVEMMSRLYGIPQDYIFLP | -3.08 |
| HMEFSYLEEIGHEKGDLIKGLQLIQQKEGYVSDDAVRAVAENFGMSPAEVEGVLTFYAQFKR | -0.162 |
| HMEGFKSVYFLTTPSGAEISDRSVGDIISKTPSLVSAQEGTEFEFNLKGYQPSFYMINKRSPDRVFVELIP | -0.545 |
| HMEGLEKDDGGYYFEKDNGERARNEWVYVEYEGKGYWYYMTDYGYPLRSAITPDGYKVNSNGHWIDEGN | -0.644 |
| HMEGLESVVPDLRGKSLKSAAIAAGLSGFALSPEGSGIVYKQSPAPGGRYLKGTLIAVWLRT | -1.95 |
| HMEGMQATVTQITDEGITVRYVMNGQMVTRTLTSDEVAFVNRGQAVSDLAGAYRVGQTVWIY | -0.446 |
| HMEGNAFASTGDPEADILDITAVHPMRRDAVEELLARSGAEWSLVEGMLRDGKITMAPWEGEEFFIRS | 0.105 |
| HMEGNWGLWAKVPNRFAALTTDKDSALRRFKSKEDGEAWMASHGLKPERFDVLEIPADYKPA | 0.435 |
| HMEGRHFRILYILLNNERVTAPELAEEFGVSVRTIYRDIDTMSAAGIPIYMQGGRKGGIYLLEGY | -1.11 |
| HMEGSRASMDGQVPGKTSYLEWLARQPAQRQDQVLGAERGRLFRAGEIDLADMFTDKGEWISLERLKQLS | 0.309 |
| HMEGVSNLIVSVTRVKVTVDLSQAKVYLSIFPSEQAAFYLNALQQNRFQLKHDLSQLLKNQLRRIPTLQF | 0.296 |
| HMEHDYGLSGREREVLELMVQGLVKKEIADRLALSYHTVDNHLRSIYAKLQVHTRGGAVAKALSEHLVPP | -0.0631 |
| HMEHGQWLSEAQGASLAADWLARRRGVLPLNARRHLSGLSDQIARQIEGGLSREAGLYTAHEMMESLDP | -0.427 |
| HMEHNDPEVERTMFQGLEALKLQLFEKAFGHFSLLIKLAPDYAEAWNKRATVLYLMGRFKESESDVMRTLE | 0.16 |
| HMEHQLLHMEKTIFEEIADDYPQLNHTKIRNVLAAFLFTNDDVFKRIADLSGGERGRVSLAKLMLSDA | -0.159 |
| HMEHTPYLTEREADVVRLLVSGLDTAQIAQRLGIKTATVTAHKKHIFLKIGVRNTTQLVAWALIR | -2.3 |
| HMEIELHNLALNIKEFRKKNKLSQAELAEKLGVARTTIGYYERAEVEPNIYTLVQLSKLMNRSIDSLLGL | -2.64 |
| HMEIFYGDDRVYTVSLHGQNNFPFRKKTSDFDYGFEDGTGDEEYLRVLDVTLSRLENEQFDLLFFQAGV | -0.068 |
| HMEIFYSARAWAKLNDLVATRTYLQHLGAIAGRIGRSEGLSPDRIPDGRDGAVNGWPLWVWDRAYAEVS | -2.82 |
| HMEIGLIRVDSRLIHGQVITKWLNYSKANVIVVVDDELSKDSFMSEIYKASAPNGIIVEILSIDDFMKNT | -0.0469 |
| HMEIHIGSLIKEKMEERGLSVSDFAHALHYERTNIYKIFKRSSIDVDLLLRISEVLAYDFLREVYL | -2.4 |
